Legend:
[1] = target: GST-fusion histone H3 peptide (residues 1-57), K27R mutant [GST: P08515]
[2] = target: GST-fusion histone H3 peptide (residues 1-57), wild-type
[3] = target: peptide containing H3 residues 1-20
[4] = target: full-length free histone H3 (individual core histone)
[5] = target: H3 peptide containing residues 15-30

B1: recombinant wild-type vSET expressed in E. coli BL21 (protein)
chain: MFNDRVIVKKSPLGGYGVFARKSFEKGELVEECLCIVRHNDDWGTALEDYLFSRKNMSAMALGFGAIFNHSKDPNARHELTAGLKRMRIFTIKPIAIGEEITISYGDDYWLSRPRLTQN
[1]
  methylation assay (methyl transfer from 14C-methyl-SAM): The methylation assay showed that vSET was only active when H3 contained K27
[2]
  methylation assay (methyl transfer from 14C-methyl-SAM): The methylation assay showed that vSET was only active when H3 contained K27
Core histone H2A
  histone methyltransferase activity: confirming its activity for full-length free H3 and H3 within the nucleosome, but not other core histones
Core histone H4
  histone methyltransferase activity: confirming its activity for full-length free H3 and H3 within the nucleosome, but not other core histones
Core histone H2B
  histone methyltransferase activity: confirming its activity for full-length free H3 and H3 within the nucleosome, but not other core histones
[3]
  methylation activity with H3 peptides (14C-methyl-SAM): Like vSET, these viral SET proteins only methylated a H3 peptide containing residues 15-30 but not a peptide containing H3 residues 1-20
[4]
  histone methyltransferase activity: confirming its activity for full-length free H3 and H3 within the nucleosome, but not other core histones
[5]
  methylation activity with H3 peptides (14C-methyl-SAM): Like vSET, these viral SET proteins only methylated a H3 peptide containing residues 15-30 but not a peptide containing H3 residues 1-20

Reference: patent publication US20110123511
